Laboratory results: patent publication US20240016949A1 (SHANGHAI FUDAN ZHANGJIANG BIO PHARMACEUTICAL, published 2024)
Substitutions are numbered along the chain they refer to.

Target: T1, FcγRIIa (CD32a) (UniProt P12318 34-317, limits assumed)
T1 sequence (looked up): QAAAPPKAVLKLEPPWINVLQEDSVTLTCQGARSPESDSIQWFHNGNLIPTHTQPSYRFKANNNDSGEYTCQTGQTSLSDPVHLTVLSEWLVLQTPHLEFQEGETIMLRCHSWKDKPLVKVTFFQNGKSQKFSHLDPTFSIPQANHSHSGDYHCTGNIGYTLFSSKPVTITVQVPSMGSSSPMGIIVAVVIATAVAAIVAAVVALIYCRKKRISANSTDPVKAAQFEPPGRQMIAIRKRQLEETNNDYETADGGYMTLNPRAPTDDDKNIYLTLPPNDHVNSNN
Experiment: cell-based or functional assay

B1: antibody-drug conjugate FDA028-LE14 (antibody, human IgG1, kappa)
light: not shown
heavy: QVQLQQWGAGLLKPSETLSLTCAVYGGSFSGYYWSWIRQPPGKGLEWIGEINHSGSTNYNPSLKSRVTISVETSKNQFSLKLSSVTAADTAVYYCARDKWTWYFDLWGRGTLVTVSSASTKGPSVFPLAPSSKSTSGGTAALGCLVKDYFPEPVTVSWNSGALTSGVHTFPAVLQSSGLYSLSSVVTVPSSSLGTQTYICNVNHKPSNTKVDKKVEPKSCDKTHTCPPCPAPPVAGGPSVFLFPPKPKDTLMISRTPEVTCVVVDVSHEDPEVKFNWYVDGVEVHNAKTKPREEQYNSTYRVVSVLTVLHQDWLNGKEYKCKVSNKALPAPIEKTISKAKGQPREPQVYTLPPSREEMTKNQVSLTCLVKGFYPSDIAVEWESNGQPENNYKTTPPVLDSDGSFFLYSKLTVDKSRWQQGNVFSCSVMHEALHNHYTQKSLSLSPGK
modifications: LE14 linker-drug as thioether on cysteines of reduced interchain disulfides; DAR 7.63 for the whole antibody
IC50 value (nM), killing activity on HSC Cell: 334 nM | IC50 value (nM), killing activity on K562 Cell: 270 nM

B2: antibody-drug conjugate FDA029-LE14 (antibody, human IgG1, kappa)
light: not shown
heavy: B1 heavy with P233E, V234F, A235E, P331S
modifications: LE14 linker-drug as thioether on cysteines of reduced interchain disulfides; DAR 7.82 for the whole antibody
IC50 value (nM), killing activity on HSC Cell: 363 nM | IC50 value (nM), killing activity on K562 Cell: 323 nM
